Earlier results on three molecules are cited in US20230295339A1, “METHOD FOR TREATING A GD2-POSITIVE CANCER” (EUSA PHARMA (UK) LIMITED, priority 2020, published 2023).

Where only a bound is given, the exact number is not on record here.

The conditions of data set [1]: for Kd: read-out: apparent kD for binding to GD2.

B1: dinutuximab beta: chimeric (murine/human) anti-GD2 IgG1 monoclonal antibody produced in CHO cells (antibody, chains of the INN, looked up, V domains shown)
VH: EVQLLQSGPELEKPGASVMISCKASGSSFTGYNMNWVRQNIGKSLEWIGAIDPYYGGTSYNQKFKGRATLTVDKSSSTAYMHLKSLTSEDSAVYYCVSGMEYWGQGTSVTVSS
VL: EIVMTQSPATLSVSPGERATLSCRSSQSLVHRNGNTYLHWYLQKPGQSPKLLIHKVSNRFSGVPDRFSGSGSGTDFTLKISRVEAEDLGVYFCSQSTHVPPLTFGAGTKLELK
As to B1, the “tolerability of cumulative dose in maintenance treatment” value (10 days, 10 mg/m^2/day, 35-day intervals, 5 cycles, cumulative 500 mg/m^2 in 175 days) is “feasible and well-tolerated”. Also, the “toxicity in subsequent cycles” value (in vivo) is on record as “decrease of dinutuximab beta toxicity in subsequent cycles”.

B2: Unituxin: chimeric anti-GD2 antibody ch14.18 produced in SP2/0 murine hybridoma cells (antibody, chains of the INN, looked up, V domains shown)
VH: B1 VH
VL: B1 VL
B2: in data set [1], the “binding preference for GD2 versus the related glycan structure GQ2” value was 1000, the “binding preference for GD2 versus the related glycan structure GT2” value is given as more than 5000 and the Kd was 60 nM.

B3: humanized 3F8: murine anti-GD2 antibody 3F8 humanized as naxitamab (antibody, chains of the INN, looked up, V domains shown)
VH: QVQLVESGPGVVQPGRSLRISCAVSGFSVTNYGVHWVRQPPGKGLEWLGVIWAGGITNYNSAFMSRLTISKDNSKNTVYLQMNSLRAEDTAMYYCASRGGHYGYALDYWGQGTLVTVSS
VL: EIVMTQTPATLSVSAGERVTITCKASQSVSNDVTWYQQKPGQAPRLLIYSASNRYSGVPARFSGSGYGTEFTFTISSVQSEDFAVYFCQQDYSSFGQGTKLEIK
B3: in data set [1], the “binding preference for GD2 versus the related glycan structure GQ2” value is 200, the “binding preference for GD2 versus the related glycan structure GT2” value is 1500 and the Kd was 7.7 nM.
